Data as given in patent US20220119534A1 (DRAGONFLY THERAPEUTICS, published 2022).
Positions count from the first letter of the chain named.

T1: Human CLEC12A-His (human, UniProt Q5QGZ9 65-265)
T1 sequence: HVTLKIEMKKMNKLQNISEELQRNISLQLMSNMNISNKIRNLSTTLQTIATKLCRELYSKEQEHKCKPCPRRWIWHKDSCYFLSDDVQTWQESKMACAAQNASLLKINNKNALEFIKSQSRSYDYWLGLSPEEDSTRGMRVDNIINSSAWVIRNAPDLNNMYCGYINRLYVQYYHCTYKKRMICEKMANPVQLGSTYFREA

T2: human CLEC12A-K244Q-His (human, UniProt Q5QGZ9 65-265)
T2 construct: Polymorphic variant; also called hCLEC12A-K244Q; CLEC12A (Q244)
T2 chain: T1 sequence with K180Q

T3: recombinant cynomolgus CLEC12A-His (cynomolgus monkey, UniProt A0A2K5WXQ4 71-271)
T3 construct: also called cCLEC12A-His; cCLEC12A
T3 sequence: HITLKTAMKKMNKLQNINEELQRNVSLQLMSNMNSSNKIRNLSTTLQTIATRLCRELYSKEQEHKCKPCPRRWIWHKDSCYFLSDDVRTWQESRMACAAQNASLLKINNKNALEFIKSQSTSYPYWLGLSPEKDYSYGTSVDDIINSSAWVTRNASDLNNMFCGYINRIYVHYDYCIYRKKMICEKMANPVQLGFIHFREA

T4: recombinant human CLEC12A-His (human, UniProt Q5QGZ9 65-265)
T4 construct: also called hCLEC12A-His; hCLEC12A
T4 sequence: T1 sequence

T5: human CLEC12A expressed on cells (human, UniProt Q5QGZ9 1-265)
T5 construct: Transduced isogenic cells or endogenous expression on AML cells; also called RMA-hCLEC12A; Ba/F3-hCLEC12A
T5 sequence: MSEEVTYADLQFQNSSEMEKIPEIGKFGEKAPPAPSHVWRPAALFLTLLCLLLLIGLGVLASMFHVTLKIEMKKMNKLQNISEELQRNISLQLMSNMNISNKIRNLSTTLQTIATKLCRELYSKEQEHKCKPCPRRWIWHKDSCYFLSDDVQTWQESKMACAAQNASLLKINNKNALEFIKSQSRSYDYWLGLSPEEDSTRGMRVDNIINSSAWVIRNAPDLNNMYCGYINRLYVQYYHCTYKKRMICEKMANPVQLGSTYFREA

B1: AB0053 (bispecific antibody)
chain 1: QLQLQESGPGLVKPSETLSLTCTVSGFSLTNYGLHWIRQPPGKCLEWIGVIWSGGKTDYNPSLKSRVTISKDTSKNQFSLKLSSVQAADTAVYYCAKYDYDDALDYWGQGTLVTVSSGGGGSGGGGSGGGGSGGGGSDIQMTQSPSSLSASVGDRVTITCHASQNINFWLSWYQQKPGKAPKLLIYEASNLHTGVPSRFSGSGSGTRFTLTISSLQPEDIATYYCQQSHSYPLTFGCGTKLEIKGSDKTHTCPPCPAPELLGGPSVFLFPPKPKDTLMISRTPEVTCVVVDVSHEDPEVKFNWYVDGVEVHNAKTKPREEQYNSTYRVVSVLTVLHQDWLNGKEYKCKVSNKALPAPIEKTISKAKGQPREPRVYTLPPCRDELTKNQVSLTCLVKGFYPSDIAVEWESNGQPENNYKTTPPVLVSDGSFTLYSKLTVDKSRWQQGNVFSCSVMHEALHNHYTQKSLSLSPG
chain 2: EVQLVESGGGLVKPGGSLRLSCAASGFTFSSYSMNWVRQAPGKGLEWVSSISSSSSYIYYADSVKGRFTISRDNAKNSLYLQMNSLRAEDTAVYYCARGAPIGAAAGWFDPWGQGTLVTVSSASTKGPSVFPLAPSSKSTSGGTAALGCLVKDYFPEPVTVSWNSGALTSGVHTFPAVLQSSGLYSLSSVVTVPSSSLGTQTYICNVNHKPSNTKVDKKVEPKSCDKTHTCPPCPAPELLGGPSVFLFPPKPKDTLMISRTPEVTCVVVDVSHEDPEVKFNWYVDGVEVHNAKTKPREEQYNSTYRVVSVLTVLHQDWLNGKEYKCKVSNKALPAPIEKTISKAKGQPREPQVCTLPPSRDELTENQVSLTCLVKGFYPSDIAVEWESNGQPENNYKTTPPVLDSDGSFFLYSWLTVDKSRWQQGNVFSCSVMHEALHNHYTQKSLSLSPG
chain 3: DIQMTQSPSSVSASVGDRVTITCRASQGISSWLAWYQQKPGKAPKLLIYAASSLQSGVPSRFSGSGSGTDFTLTISSLQPEDFATYYCQQGVSFPRTFGGGTKVEIKRTVAAPSVFIFPPSDEQLKSGTASVVCLLNNFYPREAKVQWKVDNALQSGNSQESVTEQDSKDSTYSLSSTLTLSKADYEKHKVYACEVTHQGLSSPVTKSFNRGEC
B2: AB0192 TriNKET (other)
chain: EVQLVESGGGVVQPGGSLRLSCAASGFTFNAFGMHWVRQAPGKCLEWVAFISSGSTSIYYANTVKGRFTISRDNSKNTLYLQMNSLRAEDTAVYYCARDGYPTGGAMDYWGQGTSVTVSSGGGGSGGGGSGGGGSGGGGSDIQMTQSPSSLSASVGDRVTITCKASQDIYNYLSWFQQKPGKAPKPLIYRANILVSGVPSRFSGSGSGQDYTFTISSLQPEDIATYYCLQFDAFPFTFGCGTKLEIKGSDKTHTCPPCPAPELLGGPSVFLFPPKPKDTLMISRTPEVTCVVVDVSHEDPEVKFNWYVDGVEVHNAKTKPREEQYNSTYRVVSVLTVLHQDWLNGKEYKCKVSNKALPAPIEKTISKAKGQPREPRVYTLPPCRDELTKNQVSLTCLVKGFYPSDIAVEWESNGQPENNYKTTPPVLVSDGSFTLYSKLTVDKSRWQQGNVFSCSVMHEALHNHYTQKSLSLSPG
heavy: B1 chain 2
light: B1 chain 3
notes: Humanized 9F11.B7 scFv-Fc, A49MI Fab-Fc

Assays:
Human CLEC12A-His [1] = target: T1, Human CLEC12A-His; assay: cell-based or functional assay
Human CLEC12A-His [2] = target: T1, Human CLEC12A-His; assay: SPR Biacore 8K 37 C; TriNKET captured on anti-hFc chip, hCLEC12A-His as analyte; two-state fit, kd2
Human CLEC12A-His [3] = target: T1, Human CLEC12A-His; assay: SPR Biacore 8K 37 C; TriNKET captured on anti-hFc chip, hCLEC12A-His as analyte; two-state fit; two-state fit
Human CLEC12A-His [4] = target: T1, Human CLEC12A-His; assay: SPR Biacore 8K 37 C; TriNKET captured on anti-hFc chip, hCLEC12A-His as analyte; two-state fit, kd1; two-state fit; kd1
Human CLEC12A-His [5] = target: T1, Human CLEC12A-His; assay: SPR Biacore 8K 37 C; TriNKET captured on anti-hFc chip, hCLEC12A-His as analyte; two-state fit, ka1 only; two-state fit; ka1 only
[6] = target: T6, recombinant human CD16a V158 (human, UniProt P08637 17-208, biotinylated); assay: SPR
T6 construct: also called FcγRIIIa V158; hCD16aV
T6 sequence (P08637 17-208 F176V limits assumed): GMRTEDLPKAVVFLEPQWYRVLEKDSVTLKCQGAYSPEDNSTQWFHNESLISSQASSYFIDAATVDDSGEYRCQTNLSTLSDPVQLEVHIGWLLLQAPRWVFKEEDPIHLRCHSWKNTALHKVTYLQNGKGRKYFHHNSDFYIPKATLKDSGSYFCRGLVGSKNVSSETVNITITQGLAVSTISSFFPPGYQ

human CLEC12A-K244Q-His = target: T2, human CLEC12A-K244Q-His; assay: SPR
[7] = target: T3, recombinant cynomolgus CLEC12A-His; assay: SPR 37C
[8] = target: T4, recombinant human CLEC12A-His; assay: SPR
[9] = target: T5, human CLEC12A expressed on cells; assay: flow cytometry, HL60
[10] = target: T4, recombinant human CLEC12A-His; assay: SPR screening, semi-purified
[11] = target: T5, human CLEC12A expressed on cells; assay: flow cytometry, hCLEC12A+ Ba/F3
[12] = target: T5, human CLEC12A expressed on cells; assay: flow cytometry on HL-60 cells, fold over background
Description: The cells were then incubated with a fluorophore conjugated anti-human IgG secondary antibody and were analyzed by flow cytometry. The mean fluorescence intensity (MFI) values were normalized to secondary antibody only controls to obtain fold over background (FOB) values.
100,000 cells were seeded per well into a 96-well plate for FACS staining. Cells were washed with PBS. Cells were incubated in a 1:2000 dilution of live/dead dye in PBS for 15 minutes, then washed with FACS buffer. TriNKETs or mAbs were diluted into FACS buffer, and 50 μl containing diluted TriNKET or mAb was added to cells. Cells were incubated on ice for 20 minutes. After the incubation, cells were washed with FACS buffer. Anti-human IgG-Fc secondary antibody was diluted into FACS buffer, and 50 μl was added per well for detection of the bound TriNKETs or mAbs. Cells were incubated for 20 minutes on ice, then washed with FACS buffer. 50 μl of fixation buffer was added to each well, and cells were incubated for 10 minutes at room temperature. Cells were washed with FACS buffer and resuspended in FACS buffer for analysis with BD FACS Celesta SN #H66034400085, or BD FACS Celesta SN #H66034400160. Cells of interest were identified using FSC vs. SSC plot, and an appropriately shaped gate was drawn around the cells. Within the gated cells, doublet cells were removed by viewing FSC-H vs FSC-A plot. Within the single cell population, live cells were gated. Within the live gate, the mean fluorescence intensity (MFI) of each sample and the secondary-only control was calculated. Fold-over-background (FOB) was calculated as the ratio of test article MFI over secondary-only background MFI. Data were fit to a four-parameter non-linear regression curve using GraphPad Prism 7.0.

[13] = target: T4, recombinant human CLEC12A-His; assay: SPR; sensorgrams of a CLEC12A concentration series with fit overlays (response up to about 28, time axis 0 to about 900)
[14] = target: T5, human CLEC12A expressed on cells; assay: flow cytometry (MFI) on CLEC12A+ PL21 AML cells, about 0.04 to 27 nM, plateau about 1150 MFI; the molecule is assigned by panel order and legend paragraph 296

Row | Binder | EC50 (nM), KHYG-1-CD16aV cytotoxicity assay, PL-21 cells (Human CLEC12A-His [1]) | koff (Human CLEC12A-His [2]) | Kd (Human CLEC12A-His [3]) | koff (Human CLEC12A-His [4]) | kon (Human CLEC12A-His [5]) | fold difference in affinity vs trastuzumab [6] | fold difference in affinity vs CLEC12A WT (human CLEC12A-K244Q-His) | binding result [7] | Kd [8] | EC50 [9] | Max binding MFI [9] | Kd [10] | koff [10] | kon [10] | EC50 [11] | Max binding MFI [11] | EC50 (read off the curve) [12] | Kd [13] | EC50 [14]
1 | B1 | 0.39 nM | 0.000949 s⁻¹ | 2.41 nM | 0.0157 s⁻¹ | 1.63e+06 M⁻¹ s⁻¹ |  |  |  |  |  |  |  |  |  |  |  |  |  | 
2 | B2 |  |  |  |  |  | ~2 fold | ≤ 2.5 fold | no binding (tested: 100 nM) | 1.2 nM | 0.6 nM | 503 MFI | 1.26 nM | 0.00138 s⁻¹ | 1.09e+06 M⁻¹ s⁻¹ | 0.7 nM | 10200 MFI | ~1 nM | 1.66 nM | 0.27 nM
